The text below walks through data of patent publication US20230140868A1, “COMPOSITIONS AND METHODS FOR TREATING CANCER” (Alpha Beta Holdings, LLC, priority 2020, published 2023).

Test [1] relates to αvβ3-expressing human lung xenograft tumors. Briefly: αvβ3-expressing human lung xenograft with or without macrophage depletion. It is filed as in vivo, nude mice. The text has this: Successful depletion of macrophages by clodronate treatment was confirmed by staining tumor sections for the mouse macrophage marker F4/80.
For test [2], the system named is tumor cells. Briefly: In vitro ADCC with TAMs isolated from mouse Lewis lung carcinoma tumors. It is filed as cell-based. Conditions: effector: TAMs from LLC tumors grown in C57BL6 or athymic nude mice. On the procedure:
TAMs were isolated from tumor tissues as described (Kaneda, 2016). Tumors were dissociated in HBSS containing collagenase IV (Sigma, C5138), hyaluronidase (Sigma, H2654), dispase 11 (Roche, 04942078001), and DNase IV (Millipore, D5025) at 37° C. for 15 minutes. Cell suspensions were filtered through 70 μm cell strainers and washed with PBS. Single cell suspensions (10^6 cells/100 μl in 5% BSA in PBS) were incubated with Mouse BD Fc Block™ (BD Biosciences, 553142, 1:50) for 10 minutes at 4° C. and fluorescently labeled antibodies, CD11b (eBioscience, 17-0112-81, 1:100), and Ly-6G (eBioscience, 25-5931-81, 1:100), for one hour at 4° C. TAMs (CD11b-positive, Ly-6G-negative) were sorted.
(§1) We used the isolated macrophages as effector cells in an antibody-dependent cellular-cytotoxicity (ADCC) assay. […] The ratio of dead target cells (PI-positive) to the total target cell population (CFSE-positive) was calculated as described (Bracher, 2007).

Test [3] concerns tumor cells. Briefly: In vitro ADCC with human monocyte-derived macrophages from healthy donor blood (LM609). The format is cell-based. Conditions: effector: human monocyte-derived macrophages from healthy donor blood. On the procedure: Human peripheral blood mononuclear cells (PBMCs) and macrophages were isolated using leukoreduction system chambers (LRSC) purchased from the San Diego Blood Bank. PBMCs were isolated from LRSC using Histopaque-1083 (Sigma, 10831) following the manufacturer's protocol. To obtain macrophages, PBMCs were incubated in tissue culture plates with human M-CSF (Peprotech, 300-25) for 5 days.
as §1

Test [4] deals with tumor cells. Briefly: In vitro ADCC with mouse NK cells. It is filed as cell-based. The conditions noted are these: effector: mouse NK cells. On the procedure: as §1
To our surprise, LM609-mediated ADCC was not achieved with mouse NK cells or peripheral blood mononuclear cells (PBMCs) isolated from human blood, immune effector cell types to which antibodies are commonly engineered for optimal binding (Listinsky, 2013; Yu, 2017). In fact, NK cells are not correlated with β3 expression in tumors. These findings were reported in FIG. 3E of Wettersten et al., Cancer Res. 79:5048 (2019).

In test [5] the target is integrin αvβ3 (Homo sapiens, UniProt P05106+P06756). The conditions noted are these: human cells; Cheresh, 1987; cited from earlier work.
Chain of integrin αvβ3 (Homo sapiens, UniProt P05106+P06756) (P06756 31-889 limits assumed): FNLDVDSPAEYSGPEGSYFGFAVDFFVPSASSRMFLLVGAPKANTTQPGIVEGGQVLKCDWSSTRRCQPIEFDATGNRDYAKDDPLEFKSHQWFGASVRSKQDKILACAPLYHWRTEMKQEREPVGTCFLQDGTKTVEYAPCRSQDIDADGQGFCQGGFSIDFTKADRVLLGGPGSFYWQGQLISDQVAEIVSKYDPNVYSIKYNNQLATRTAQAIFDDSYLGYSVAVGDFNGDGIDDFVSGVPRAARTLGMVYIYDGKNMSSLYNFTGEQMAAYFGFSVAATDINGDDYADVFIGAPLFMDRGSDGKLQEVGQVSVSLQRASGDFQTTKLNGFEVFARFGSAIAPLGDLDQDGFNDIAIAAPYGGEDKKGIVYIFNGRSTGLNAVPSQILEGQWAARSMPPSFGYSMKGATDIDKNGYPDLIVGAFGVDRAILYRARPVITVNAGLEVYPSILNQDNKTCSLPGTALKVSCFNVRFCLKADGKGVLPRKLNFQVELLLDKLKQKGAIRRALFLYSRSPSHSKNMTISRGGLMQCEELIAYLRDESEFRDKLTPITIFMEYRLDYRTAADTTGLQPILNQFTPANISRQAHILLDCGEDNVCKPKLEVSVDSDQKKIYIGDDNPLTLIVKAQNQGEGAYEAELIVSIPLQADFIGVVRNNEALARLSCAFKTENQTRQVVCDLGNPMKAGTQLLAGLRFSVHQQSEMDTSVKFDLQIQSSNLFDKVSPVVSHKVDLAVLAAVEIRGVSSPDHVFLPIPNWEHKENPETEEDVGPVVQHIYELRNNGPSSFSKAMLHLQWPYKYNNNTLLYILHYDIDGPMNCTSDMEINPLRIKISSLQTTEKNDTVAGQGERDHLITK
Chain of integrin αvβ3 (Homo sapiens, UniProt P05106+P06756) (P06756 891-1048 limits assumed): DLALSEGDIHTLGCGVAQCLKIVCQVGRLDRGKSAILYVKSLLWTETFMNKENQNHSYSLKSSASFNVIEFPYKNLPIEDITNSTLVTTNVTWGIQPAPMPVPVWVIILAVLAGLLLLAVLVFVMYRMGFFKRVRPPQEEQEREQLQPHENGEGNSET
Chain of integrin αvβ3 (Homo sapiens, UniProt P05106+P06756) (P05106 27-788): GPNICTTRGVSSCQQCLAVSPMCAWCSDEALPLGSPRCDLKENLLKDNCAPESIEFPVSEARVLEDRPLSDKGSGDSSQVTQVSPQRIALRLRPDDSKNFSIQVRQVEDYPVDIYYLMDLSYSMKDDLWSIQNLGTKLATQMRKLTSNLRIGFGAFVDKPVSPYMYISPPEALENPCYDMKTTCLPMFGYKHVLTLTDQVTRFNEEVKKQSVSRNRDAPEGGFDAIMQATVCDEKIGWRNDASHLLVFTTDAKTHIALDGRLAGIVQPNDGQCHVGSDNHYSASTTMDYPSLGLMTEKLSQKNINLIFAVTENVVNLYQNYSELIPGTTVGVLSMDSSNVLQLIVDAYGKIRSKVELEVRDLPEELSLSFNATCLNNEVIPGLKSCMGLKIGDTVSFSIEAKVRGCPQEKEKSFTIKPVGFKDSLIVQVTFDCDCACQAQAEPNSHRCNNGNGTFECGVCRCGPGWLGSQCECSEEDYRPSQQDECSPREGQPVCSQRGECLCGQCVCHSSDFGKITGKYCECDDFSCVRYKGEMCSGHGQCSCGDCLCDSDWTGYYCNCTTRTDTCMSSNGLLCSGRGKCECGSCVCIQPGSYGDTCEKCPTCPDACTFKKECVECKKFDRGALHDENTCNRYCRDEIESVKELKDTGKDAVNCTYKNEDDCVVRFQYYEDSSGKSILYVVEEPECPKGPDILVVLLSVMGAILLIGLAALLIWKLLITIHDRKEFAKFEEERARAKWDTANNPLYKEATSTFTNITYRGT
Test [6] concerns the target T1, integrin αvβ3 (Mus musculus, UniProt O54890+P43406).
T1 sequence (P43406 31-885 limits assumed): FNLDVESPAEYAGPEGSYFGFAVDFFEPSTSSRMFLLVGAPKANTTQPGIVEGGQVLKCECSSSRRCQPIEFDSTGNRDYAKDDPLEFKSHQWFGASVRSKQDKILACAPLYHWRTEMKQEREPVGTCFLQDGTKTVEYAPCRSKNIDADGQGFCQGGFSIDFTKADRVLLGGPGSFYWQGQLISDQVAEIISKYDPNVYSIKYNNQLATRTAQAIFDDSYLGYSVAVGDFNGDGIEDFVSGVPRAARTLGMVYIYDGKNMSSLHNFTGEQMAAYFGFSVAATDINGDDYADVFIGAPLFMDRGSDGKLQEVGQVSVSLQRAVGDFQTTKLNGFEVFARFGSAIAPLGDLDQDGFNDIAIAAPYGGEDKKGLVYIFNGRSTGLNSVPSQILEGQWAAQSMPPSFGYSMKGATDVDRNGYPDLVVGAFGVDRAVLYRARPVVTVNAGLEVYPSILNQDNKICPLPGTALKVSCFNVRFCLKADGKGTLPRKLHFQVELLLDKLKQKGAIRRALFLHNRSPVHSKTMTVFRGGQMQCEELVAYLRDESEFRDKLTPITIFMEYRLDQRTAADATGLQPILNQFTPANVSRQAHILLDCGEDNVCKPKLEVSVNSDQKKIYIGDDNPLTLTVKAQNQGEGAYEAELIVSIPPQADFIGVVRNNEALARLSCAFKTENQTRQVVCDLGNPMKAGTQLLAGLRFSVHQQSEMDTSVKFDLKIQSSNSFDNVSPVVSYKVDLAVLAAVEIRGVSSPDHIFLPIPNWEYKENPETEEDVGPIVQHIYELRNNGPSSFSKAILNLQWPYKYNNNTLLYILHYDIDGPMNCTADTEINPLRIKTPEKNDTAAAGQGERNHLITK
T1 sequence (P43406 887-1044 limits assumed): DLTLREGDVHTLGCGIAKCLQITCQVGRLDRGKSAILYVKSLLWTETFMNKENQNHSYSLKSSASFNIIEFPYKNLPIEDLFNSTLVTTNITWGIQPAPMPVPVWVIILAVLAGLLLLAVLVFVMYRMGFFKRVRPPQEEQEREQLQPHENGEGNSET
T1 sequence (O54890 26-787): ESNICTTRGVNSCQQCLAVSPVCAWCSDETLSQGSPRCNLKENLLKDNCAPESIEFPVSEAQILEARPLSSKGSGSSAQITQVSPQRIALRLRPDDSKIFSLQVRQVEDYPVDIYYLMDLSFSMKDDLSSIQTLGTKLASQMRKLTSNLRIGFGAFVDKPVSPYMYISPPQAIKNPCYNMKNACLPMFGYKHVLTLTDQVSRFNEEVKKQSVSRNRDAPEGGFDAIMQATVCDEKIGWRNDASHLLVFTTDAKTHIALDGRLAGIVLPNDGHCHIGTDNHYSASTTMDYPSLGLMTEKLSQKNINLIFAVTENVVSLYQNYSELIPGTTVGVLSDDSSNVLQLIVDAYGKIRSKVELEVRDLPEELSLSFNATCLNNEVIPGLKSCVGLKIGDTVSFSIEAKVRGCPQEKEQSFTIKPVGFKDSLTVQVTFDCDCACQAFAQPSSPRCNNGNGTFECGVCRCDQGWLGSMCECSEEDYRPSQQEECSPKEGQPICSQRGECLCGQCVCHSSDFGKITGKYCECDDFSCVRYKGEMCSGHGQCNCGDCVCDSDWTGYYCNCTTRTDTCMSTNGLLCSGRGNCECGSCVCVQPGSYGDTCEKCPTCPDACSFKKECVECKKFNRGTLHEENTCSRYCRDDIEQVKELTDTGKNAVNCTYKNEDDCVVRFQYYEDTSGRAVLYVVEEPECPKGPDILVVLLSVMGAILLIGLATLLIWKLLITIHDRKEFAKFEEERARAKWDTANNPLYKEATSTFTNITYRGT
The conditions noted are these: mouse cells; Cheresh, 1987; cited from earlier work.

B1: LM609: mouse monoclonal IgG1K antibody that recognizes human integrin αvβ3; SEQ ID NO:11 and 12 (antibody)
heavy: MNFGLRLIFLVLTLKGVKCEVQLVESGGGLVKPGGSLKLSCAASGFAFSSYDMSWVRQIPEKRLEWVAKVSSGGGSTYYLDTVQGRFTISRDNAKNTLYLQMSSLNSEDTAMYYCARHNYGSFAYWGQGTLVTVSAAKTTPPSVYPLAPGSAAQTNSMVTLGCLVKGYFPEPVTVTWNSGSLSSGVHTFPAVLQSDLYTLSSSVTVPSSTWPSETVTCNVAHPASSTKVDKKIVPRDCGCKPCICTVPEVSSVFIFPPKPKDVLTITLTPKVTCVVVDISKDDPEVQFSWFVDDVEVHTAQTQPREEQFNSTFRSVSELPIMHQDWLNGKEFKCRVNSAAFPAPIEKTISKTKGRPKAPQVYTIPPPKEQMAKDKVSLTCMITDFFPEDITVEWQWNGQPAENYKNTQPIMDTDGSYFVYSKLNVQKSNWEAGNTFTCSVLHEGLHNHHTEKSLSHSPGK
light: MVFTPQILGLMLFWISASRGDIVLTQSPATLSVTPGDSVSLSCRASQSISNHLHWYQQKSHESPRLLIKYASQSISGIPSRFSGSGSGTDFTLSINSVETEDFGMYFCQQSNSWPHTFGGGTKLEIKRADAAPTVSIFPPSSEQLTSGGASVVCFLNNFYPKDINVKWKIDGSERQNGVLNSWTDQDSKDSTYSMSSTLTLTKDEYERHNSYTCEATHKTSTSPIVKSFNRNEC
modifications: mAb LM609-mIgG1-kappa Heavy chain; mAb LM609-mIgG1-kappa Light chain
For B1, the “anti-tumor effect after macrophage depletion” value in test [1] (macrophage depletion using clodronate liposomes) is reported as “completely blocked”. For the same molecule, the “sensitivity of xenograft tumors to LM609” value in test [1] (reported in FIG. 2A of Wettersten et al.) is reported as “highly sensitive”. In the test on tumor cells [2], the ADCC activity entry is given as “robust ADCC activity”. The “ADCC (tumor cell killing)” value in the test with tumor cells [3] was “could also kill tumor cells”. Moreover, the “LM609-mediated ADCC” value with tumor cells [4] is given as “not achieved”. For the same molecule, the figures for the “recognition of integrin αvβ3” value in the test with integrin αvβ3 [5] and in the test with integrin αvβ3 [6] were “recognizes integrin αvβ3 on human” and “not mouse cells”, respectively.
